The text below walks through data of US9725713.

A value given as a limit tells only on which side of the number the result lay.

The test system of series [1] is MDA-MB-231 cell surface (target molecule unidentified, whole cells) (Homo sapiens?). Briefly: flow.
Series [2] has as its system MDA-MB-231 cell surface (target molecule unidentified, whole cells). Nature of the series: flow. The conditions noted are these: apparent Kd on whole cells.

With “TCCCGAGTGACGCAGCCCCCGGTGGGATTAATCGGTGGACACGGTGGCTGAC [T23-A30]”, in series [1] (no binding at 250 nM), the Kd was greater than 1000 nM. For the sequence “TCCCGAGTGACGCAGCCCCCGGNGGGATTGATCGGTGGACACGGTGGCTGAC [Z23-G30]”, the Kd in series [2] (n at 23 is Z) came to 442 nM. For the sequence “TCCCGAGTGACGCAGCCCCCGGTGGGATTNATCGGTGGACACGGTGGCTGAC [T23-P30]”, the Kd in series [1] (n at 30 is P, no binding at 250 nM) was greater than 1000 nM.

Regarding “TCCCGAGTGACGCAGCCCCCGGCGGGATTNATCGGTGGACACGGTGGCTGAC [C23-P30]”, in series [2] (n at 30 is P), the Kd is 160 nM.

For the sequence “TCCCGAGTGACGCAGCCCCCGGZGGGATTPATCGGTGGACACGGTGGCTGAC [ZAP-2012 (Z23-P30)]”, the Kd in series [2] (AEGIS DNA, Z at 23 (6-amino-5-nitro-3-(2'-deoxyribosyl)-2(1H)-pyridone), P at 30 (2-amino-8-(2'-deoxyribosyl)-imidazo[1,2-a]-1,3,5-triazin-4(8H)one), SEQ 7/16, DPBS, 5 mM MgCl2, glucose, tRNA, BSA, 10% FBS, library background subtracted) worked out at 30 nM. In series [1] (n at 23 is Z, reduced binding at 250 nM, almost no binding in titration), “TCCCGAGTGACGCAGCCCCCGGNGGGATTAATCGGTGGACACGGTGGCTGAC [Z23-A30]” had a Kd greater than 1000 nM.

In series [1] (no binding at 250 nM), “TCCCGAGTGACGCAGCCCCCGGTGGGATTGATCGGTGGACACGGTGGCTGAC [T23-G30]” showed a Kd greater than 1000 nM. Same read-out and setting: for “TCCCGAGTGACGCAGCCCCCGGCGGGATTAATCGGTGGACACGGTGGCTGAC [C23-A30]” the value was greater than 1000 nM. Still for that read-out and setting: for “TCCCGAGTGACGCAGCCCCCGGCGGGATTGATCGGTGGACACGGTGGCTGAC [C23-G30]” the value was greater than 1000 nM.
